These results are taken from patent publication US20150004190A1.

Assay [1] addresses Peptide ELDKWA (HIV-1). Briefly: ELISA on coated peptide.
Assay [2] addresses Peptide ELDKWA (HIV-1). Nature of the assay: ELISA on coated peptide (FIG. 1). For orientation: ELISA stands for enzyme-linked immunosorbent assay.
Assay [3] has as its target Peptide ELDKWA (HIV-1). Nature of the assay: competitive ELISA, competitor 0.027 nM 2F5 IgA2 detected with anti-human IgA.

B1: 2F5 IgA2 (antibody, V domains shown)
VH: RITLKESGPPLVKPTQTLTLTCSFSGFSLSDFGVGVGWIRQPPGKALEWLAIIYSDDDKRYSPSLNTRLTITKDTSKNQVVLVMTRVSPVDTATYFCAHRRGPTTLFGVPIARGPVNAMDVWGQGITVTI
VL: ALQLTQSPSSLSASVGDRITITCRASQGVTSALAWYRQKPGSPPQLLIYDASSLESGVPSRFSGSGSGTEFTLTISTLRPEDFATYYCQQLHFYPHTFGGGTRVDVR
As to B1, the fold higher efficacy as compared to IgG1 in the assay with Peptide ELDKWA (HIV-1) [1] was > 100 fold. In the assay with Peptide ELDKWA (HIV-1) [2], the antibody concentration of equivalent binding activity is 0.05 nM.

B2: 2F5 IgG1 (antibody, V domains shown)
VH: RITLKESGPPLVKPTQTLTLTCSFSGFSLSDFGVGVGWIRQPPGKALEWLAIIYSDDDKRYSPSLNTRLTITKDTSKNQVVLVMTRVSPVDTATYFCAHRRGPTTLFGVPIARGPVNAMDVWGQGITVTI
VL: ALQLTQSPSSLSASVGDRITITCRASQGVTSALAWYRQKPGSPPQLLIYDASSLESGVPSRFSGSGSGTEFTLTISTLRPEDFATYYCQQLHFYPHTFGGGTRVDVR
In turn, B2 had a concentration needed to compete in the assay with Peptide ELDKWA (HIV-1) [3] of 25 nM. Moreover, the antibody concentration of equivalent binding activity in the assay with Peptide ELDKWA (HIV-1) [2] amounted to 6.25 nM.
